The record followed here is the nanobody polyreactivity screen of Harvey et al. (2022).

The series can be described thus: yeast display, Sf9 membrane polyspecificity reagent, FACS + sequencing; frameworks hold sequencing errors. In a few lines:
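Using colony PCR, genes from sorted yeast display clones were amplified, then sequenced on MiSeq at 2 × 250 and filtered by CDR length. The clones had been stained with 10% biotinylated, detergent-solubilized Sf9 membrane reagent for 1 hour at 4 °C and sorted by FACS into low and high (top ~1%) gates on anti-HA and streptavidin fluorescence. Polyreactivity labels come from the gate of origin.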
Consider “QVQLVESGGGLVQAGGSLRLSCAASGSIFDIYAMGWYRQAPGKERELVAAISWNGGDTTYADSVKGRFTISRDNEKNTVYLQMNSLKPEYTAVYYCAADLGYWVADYYWGQGTQVTVSS”, for which the “polyreactivity (PSR sort gate)” value was “high polyreactivity”. In the case of “QVQLVESGGGLVQAGGSLRLSCAASGSIFDLNAMGWYRQAPGKERELVAAISKSGGSTYYADSVKGRFTISRDNAKNTVYLQMNSLKPEDTAVYYCAARYHEPGYSYKFWGQGTQVTVSS”, the “polyreactivity (PSR sort gate)” value is “low polyreactivity”. In the case of “QVQLVESGGGLVQAGGSLRLSCAASGSIFDLNVMGWYRQAPGKERELVAAITWSGGSTYYADSVKGRFTISRDNAKNTVYLQMNSLKPEDTAVDYCAADTASGDTLRPTLLYDYWGQGTQVTVSS”, the “polyreactivity (PSR sort gate)” value is “low polyreactivity”.

As to “QVQLVESGGGLVQAGGSLRLSCAASGSIFDLYDMGWYRQAPGKERELVAAISLIGGSTSYADSVKGRFTISRDNAKNTVYLQMNSLKPEDTAVYYCAVEKFFRAEYDHWGQGTQVTVSS”, the “polyreactivity (PSR sort gate)” value was “low polyreactivity”. “QVQLVESGGGLVQAGGSLRLSCAASGSIFDPNAMGWYRQAPGKERELVAVITWSSSSTYYADSVKGRFTISRDNAKNTVYLQMNSLKPEDTAVYYCAAVVQGTTVWWGYDYWGQGTLVTVSS”: the “polyreactivity (PSR sort gate)” value is recorded as “low polyreactivity”. With “QVQLVESGGGLVQAGGSLRLSCAASGSIFDRNAMGWYRQAPGKERELVAAISRSSGNTYYADSVKGRFTISRDNAKNTVYLQMNSLNPEDTAVYYCNKAVSYGTYKYYYWGQGTQVTVSS” the entry was “high polyreactivity”; with “QVQLVESGGGLVQAGGSLRLSCAASGSIFDRYAMGWYRQAPGKDRELVAAITWSGGSTRYADSVNGRFTISRDNAKNTVYLQMNILKPEDTAVYYCPASSTRWKVYYWGQGTQVTVSS”, “high polyreactivity”; with “QVQLVESGGGLVQAGGSLRLSCAASGSIFDSNAMGWYRQAPGKERELVASIDRGGDTNYADSVKGRFTISRDNAKNTVYLQMNSLKPEDTAVYYCAAYYYKWVWIGMDYWGQGTQVTVSS”, “low polyreactivity”. On to “QVQLVESGGGLVQAGGSLRLSCAASGSIFDSYAMGWSRQAPGKERELVAAISWSGGSTYYADSVKGRFTISRDNAKNTVSLQMNSLKPEDTAVYYCNTDWADYYYYTDYDYWGQGTQVTVSS”, for which the “polyreactivity (PSR sort gate)” value is given as “high polyreactivity”. For “QVQLVESGGGLVQAGGSLRLSCAASGSIFDSYAMGWYRQAPGKERELVADITSDGSTHYADSVKGRFTISRDNAKNSVYLQMNSLKPEDTAVYYCAAALPLVDFYDYWGQGTQVTVSS” the value was “low polyreactivity”; for “QVQLVESGGGLVQAGGSLRLSCAASGSIFDTNAMGWYRQAPGKERELVAAINDSGGSTDYADSVKGRFTISRDNAKNTVYLQMNSLKPEDTAVYYCAADIYYTGYNGPEYYWVGMDYWGQGTQVTVSS”, “low polyreactivity”; for “QVQLVESGGGLVQAGGSLRLSCAASGSIFDTYAMGWYRQAPGKERELVAAIRQSGARTYYADSVKGRFTISRDKAKNTVYLQMNSLKPEDTAVYYCAVSYHHYQTWYNYWGQGTQVTVSS”, “high polyreactivity”.

For “QVQLVESGGGLVQAGGSLRLSCAASGSIFDTYAMGWYRQAPGKERELVAAITQSGDRTYYADSVKGRFTISRDNAKNTVYLQMNSLKPEDTAVYYCNTRRGSAWSSDYWGQGTQVTVSS”, the “polyreactivity (PSR sort gate)” value is on record as “low polyreactivity”.

On to “QVQLVESGGGLVQAGGSLRLSCAASGSIFDTYAMGWYRQAPGKERELVATITRSGARTYYADSVKGRFTISRDNAKITVYLQMNSLKTEDTAVYYCAALYYDDFGYEYDYWGQGTQVTVSS”, for which the “polyreactivity (PSR sort gate)” value was “low polyreactivity”. For the sequence “QVQLVESGGGLVQAGGSLRLSCAASGSIFDTYAMGWYRQAPGKERELVATITRSGARTYYADSVKGRFTISRDNAKNTVYLQMNSLKPEDTAVYYCAALYYDDFGYEYDYWGQGTQVTVSS”, the “polyreactivity (PSR sort gate)” value is given as “low polyreactivity”. For “QVQLVESGGGLVQAGGSLRLSCAASGSIFDTYVMGWYRQAPGKERELVAAISSVSSTYADSVKGRFTISRDNAKNTVYLQLNSLKPVDTAVYYCAADSRSPGHDYWGQGTQVTVSS”, the “polyreactivity (PSR sort gate)” value is “low polyreactivity”. Regarding “QVQLVESGGGLVQAGGSLRLSCAASGSIFDVNAMGRYRQAPGKERELVAAISDSGGSTYYADSVKGRFTISRDNAKNTVYLQMNSLKPEDTAVYYCNADWSWYNYYDFDYWGQGTQVTVSS”, the “polyreactivity (PSR sort gate)” value is reported as “low polyreactivity”. “QVQLVESGGGLVQAGGSLRLSCAASGSIFDVNAMGWYRQAPGKERELVAAITSSGGSTYYADSVKGRFTISRDNAKNTVYLQMNSLKPEDTAVYYCAAYSLYTMYWGQGTQVTVSS”: the “polyreactivity (PSR sort gate)” value was “low polyreactivity”. For the sequence “QVQLVESGGGLVQAGGSLRLSCAASGSIFDVNGMGWYRQAPGKERELVATISSDGSTNYADSVKGRFTISRDNAKNTVYLQMNSLKPEDTAVYYCAADRHQVSVISTEVYWGQGTQVTVSS”, the “polyreactivity (PSR sort gate)” value is given as “low polyreactivity”. Consider “QVQLVESGGGLVQAGGSLRLSCAASGSIFDVYAMGWYRPAPGKEREFVATITTSGGNTYYADSVKGRFTISRDHAKNTVHLQMNSLKPEDTAVYYCAKDRVKSPYLVYDSWGQGTQGTVSS”, for which the “polyreactivity (PSR sort gate)” value is recorded as “low polyreactivity”. Turning to “QVQLVESGGGLVQAGGSLRLSCAASGSIFDWNAMGWYRKAPGKERELVASITGSGGGTNYADSVKGRFTISRDNAKNTVYLQMNSLKPEDTAVYYCAAEVDYSYWPEYARKYYYWGQGTQVTVSS”, the “polyreactivity (PSR sort gate)” value is recorded as “low polyreactivity”. Turning to “QVQLVESGGGLVQAGGSLRLSCAASGSIFDWYAMGWYRQAPGKEGELVAAISSGDSTYYADSVKGRFTISRDNAKITVYLQMNSLKPEDTAVYDCAAEFHDDHPSFDYWGQGTQVTVSS”, the “polyreactivity (PSR sort gate)” value is “low polyreactivity”. Consider “QVQLVESGGGLVQAGGSLRLSCAASGSIFDWYAMGWYRQAPGKEGELVAAISSGDSTYYADSVKGRFTISRDNAMNTVYLQMNSLKPEDTAVYYCAAVTKLSGIRYNYWGQGTQVTVSS”, for which the “polyreactivity (PSR sort gate)” value is on record as “low polyreactivity”.

Regarding “QVQLVESGGGLVQAGGSLRLSCAASGSIFDWYAMGWYRQAPGKERELVAAIDSSGSSTYYADSVKGRFTISRDNAKNTVYLQMNSLKPEDNAVYYCAADSDWIRDWFGSLYGSDYWGQGSQVTVSS”, the “polyreactivity (PSR sort gate)” value is listed as “low polyreactivity”. For “QVQLVESGGGLVQAGGSLRLSCAASGSIFDWYDMGWYRQAPGKEGELVAAISSGDSTYYADSVKGRFTISRDNAKNTVYLQMNSLKPEDTAVYYCAAVTKLSGIRYNYWGQGTQVTVSS” the value was “low polyreactivity”. With “QVQLVESGGGLVQAGGSLRLSCAASGSIFDYNAMGWYTQAPGKERELVAAITSGGSTNYADSVKGRFTISRDNAKNTVYLQMNTLKPEDTAVYYCAADHDYYPTNLDYWGQGTQVTVSS”, the “polyreactivity (PSR sort gate)” value is listed as “low polyreactivity”. For “QVQLVESGGGLVQAGGSLRLSCAASGSIFDYNSMGMYIQAPGKERELVAAISSGGTTYYADSVKGRFTISLDNAKNTVYLHIKSLKPEDTDVYYCAARRAGWWGFYYWGQCTQVTVSS” the value was “high polyreactivity”. For “QVQLVESGGGLVQAGGSLRLSCAASGSIFDYNVMGWYRKAPGKERELVAAITYNDGSTYYADSVKGRFTISRDNAKNTVYLQMNSLKPEDTAVYYCAADYPGGGIYWYFYVYDYDYWGQGTQVTVSS” the value was “low polyreactivity”; for “QVQLVESGGGLVQAGGSLRLSCAASGSIFDYYAMGWYRPAPGKERELVAAISDSGGSTYYADSVKGRFTISRDNAKNTVYLQMNSLKPEDTAVYYCNAVPRYQATWQESYDYDYWGQGTQVTVSS”, “high polyreactivity”; for “QVQLVESGGGLVQAGGSLRLSCAASGSIFDYYAMGWYRQAPGKERELVASISWIGDRTYYADSVKGRFTISRDNAKNTVYLQMNSLKPEDTAVYYCATDYYEDWRGYEVYWYRPYDYWGQGTQVSVSS”, “high polyreactivity”. For “QVQLVESGGGLVQAGGSLRLSCAASGSIFDYYAMGWYRQAPGKERELVSTYYADSVKGRFTISRDNAKNTVYLQMNSLKPEDTAVYYCAKDRGTTGIRDGPAASLYGYEYWGQGTQVTVSS” the value was “low polyreactivity”.

For “QVQLVESGGGLVQAGGSLRLSCAASGSIFEFNAMGWYRQAHGKERELVSAITWSGTSTYYADSVKGRFTISRDNAKNTVYLQMKSLKPEDTAVYYCGADSTDYFYWGQGTQVTVSS”, the “polyreactivity (PSR sort gate)” value is on record as “high polyreactivity”. Consider “QVQLVESGGGLVQAGGSLRLSCAASGSIFEGNGMGWYIQAPGKERELVAAITFRSGSTYYADSVKGRFTISLDNAKNTVYLQMNSLKPEDTAVYYCAADEYYQVSAYDYWGQGTQVTVSS”, for which the “polyreactivity (PSR sort gate)” value was “low polyreactivity”. For “QVQLVESGGGLVQAGGSLRLSCAASGSIFEKYAMGWYRQAPGKERELVASISKRGGSTNYADSVKGRFTISRDNAKNTVYLQMNSLKPVDTAVYYCAAPANRWSTRWYYDGYDYWGQGTQVTVSS” the value was “high polyreactivity”. For “QVQLVESGGGLVQAGGSLRLSCAASGSIFENYAMGWYRQAPGKERELVAAITSSGASTYYADSVKGHFTISRDNEKNTVYIQMNILKPEDTAVYYCAADSAFYDEYQEDYWGQGTQVTVSS”, the “polyreactivity (PSR sort gate)” value was “low polyreactivity”. With “QVQLVESGGGLVQAGGSLRLSCAASGSIFEPNAMGWYRQAPGKVRELVAAITSGGTTYADSVKGRFTISRDNAKNTVYLQMNSLKPEETAVYYCAADYSFVYYYPFDYWGQGTQVTVSS”, the “polyreactivity (PSR sort gate)” value is listed as “low polyreactivity”.

As for “QVQLVESGGGLVQAGGSLRLSCAASGSIFEPNAMVWYRQAPGKERELVAVISIDGITYYADSVKGRFTISRDNAKNSVYLQMNSLKPEDTAVYYCAAYLGQGESYGAYDYWGQGTQVTVSS”, the “polyreactivity (PSR sort gate)” value is “low polyreactivity”.

For the sequence “QVQLVESGGGLVQAGGSLRLSCAASGSIFEQNVMGWYRQAPGKERELVAAITRGGSTNYADSVKGRFTISRDNAKNTVYLQMNSLKPEDTAVYYCAKRRWLGPSTLDYWGQGTQVTVSS”, the “polyreactivity (PSR sort gate)” value is “low polyreactivity”.

“QVQLVESGGGLVQAGGSLRLSCAASGSIFERYAMGWYRPAPGKERELVAGISSDGSTYADSVKGRFTISRDNAKNTVFLQMNSLKPEDTAVYYCAAAAWDPKGSRYDYWGQGTQVTVSS”: the “polyreactivity (PSR sort gate)” value was “low polyreactivity”. With “QVQLVESGGGLVQAGGSLRLSCAASGSIFESYAMGWYRQAPGKERELVADITYDGGITYYADSVKGRFTISRDNAKNTVYLQLNSLKPEDTAVYYCAAQAWWGYYSRGPMDYWGQGTQVTVSS” the entry was “low polyreactivity”; with “QVQLVESGGGLVQAGGSLRLSCAASGSIFESYVMGWYRQAPGKERELVAAISSGGSTYYADSVKGRFTISRDNAKNTVYLQMNSLKPEDTAVYYCAANYDGGYLDYEAGYRLEYDYWGQGTQVTVSS”, “low polyreactivity”.
